The text below walks through data of US20250163181A1 (SAINT LOUIS UNIVERSITY, published 2025).

The term EC50 denotes the concentration giving half of the maximal effect. A higher EC50 goes with weaker potency. Broadly, the Kd is the free concentration of one partner at which half of the binding sites on the other are occupied at equilibrium, for simple one-to-one binding. Higher therefore signals a looser complex. A word on the koff: it is the first-order rate constant of dissociation. The kon is a measure of how fast the partners come together. A lower kon goes with slower complex formation.

The target of test [1] is T1, prothrombin variant S91A/Y93A (human, UniProt P00734 44-622, S91A; Y93A).
T1 construct: range 1-579; Recombinant, expressed in Expi293 cells in the presence of vitamin K. Positions 91 and 93 count on the mature protein; also called ProTS91A/Y93A
Nature of the test: SPR, POmAb immobilised.

Test [2] has as its target T2, kringle-1 of human prothrombin (amino acids 44-155) (human, UniProt P00734 87-198).
T2 construct: Numbers count on the mature protein
Nature of the test: SPR, calculated from Kd.

Test [3] addresses T3, human prothrombin wild-type (human, UniProt P00734 44-622).
T3 construct: range 1-579; Residue numbers count on the mature protein, not on the precursor entry; In some runs 200 uM argatroban was added to force the open form; also called coagulation factor II; PT
Description: SPR, calculated from Kd.

In test [4] the target is T2, kringle-1 of human prothrombin (amino …). Nature of the test: SPR, second set, calculated from Kd.
The target of test [5] is T3, human prothrombin wild-type. Nature of the test: SPR, second set, calculated from Kd.
Test [6] deals with T1, prothrombin variant S91A/Y93A. Nature of the test: SPR, second set, calculated from Kd.
For test [7], the target named is T2, kringle-1 of human prothrombin (amino …). Nature of the test: ELISA, antigen immobilised, Hill fit.
In test [8] the target is T3, human prothrombin wild-type. Nature of the test: ELISA, antigen immobilised, Hill fit.
Test [9] deals with T1, prothrombin variant S91A/Y93A. Nature of the test: ELISA, antigen immobilised, Hill fit. A general note: In an ELISA, binding on a coated surface is turned into a signal by an enzyme label.
The target in test [10] is T2, kringle-1 of human prothrombin (amino …). Nature of the test: SPR, POmAb immobilised on CM5, 1:1 model, 25 C. For orientation: Surface plasmon resonance follows binding to a sensor surface in real time, without labels.
Test [11] deals with T3, human prothrombin wild-type. Description: SPR, POmAb immobilised on CM5, 1:1 model, 25 C.
Test [12] concerns the target T2, kringle-1 of human prothrombin (amino …). Description: SPR, POmAb immobilised, second set, HEPES buffer, 25 C.
Test [13] concerns the target T3, human prothrombin wild-type. The description is as above.
Test [14] deals with T1, prothrombin variant S91A/Y93A. Described as above.
In test [15] the target is T3, human prothrombin wild-type. Description: SPR, calculated from Kd; prothrombin with 200 µM argatroban.
For test [16] the target is unchanged. Description: SPR, second set, calculated from Kd; prothrombin with argatroban.
Test [17] has the same target. Description: SPR, POmAb immobilised; prothrombin with 200 µM argatroban (open form).
The target in test [18] is T1, prothrombin variant S91A/Y93A. Nature of the test: SPR, calculated from Kd; SPR, first set, Tris pH 7.4; ΔG calculated from Kd.
The target in test [19] is T3, human prothrombin wild-type. Nature of the test: SPR, POmAb immobilised, second set; prothrombin with argatroban (open form).
The target in test [20] is T4, kringle-2 of human prothrombin (amino acids 156-271) (human, UniProt P00734 199-314).
T4 construct: range 156-271; Numbers count on the mature protein
Nature of the test: ELISA, antigen coated on the plate, POmAb detected with anti-mouse IgG (gamma)-HRP and TMB, OD at 450 nm [panel C].

The target in test [21] is plasminogen (UniProt P00747 20-810, limits assumed). Described as above.
Chain of plasminogen (P00747 20-810 limits assumed): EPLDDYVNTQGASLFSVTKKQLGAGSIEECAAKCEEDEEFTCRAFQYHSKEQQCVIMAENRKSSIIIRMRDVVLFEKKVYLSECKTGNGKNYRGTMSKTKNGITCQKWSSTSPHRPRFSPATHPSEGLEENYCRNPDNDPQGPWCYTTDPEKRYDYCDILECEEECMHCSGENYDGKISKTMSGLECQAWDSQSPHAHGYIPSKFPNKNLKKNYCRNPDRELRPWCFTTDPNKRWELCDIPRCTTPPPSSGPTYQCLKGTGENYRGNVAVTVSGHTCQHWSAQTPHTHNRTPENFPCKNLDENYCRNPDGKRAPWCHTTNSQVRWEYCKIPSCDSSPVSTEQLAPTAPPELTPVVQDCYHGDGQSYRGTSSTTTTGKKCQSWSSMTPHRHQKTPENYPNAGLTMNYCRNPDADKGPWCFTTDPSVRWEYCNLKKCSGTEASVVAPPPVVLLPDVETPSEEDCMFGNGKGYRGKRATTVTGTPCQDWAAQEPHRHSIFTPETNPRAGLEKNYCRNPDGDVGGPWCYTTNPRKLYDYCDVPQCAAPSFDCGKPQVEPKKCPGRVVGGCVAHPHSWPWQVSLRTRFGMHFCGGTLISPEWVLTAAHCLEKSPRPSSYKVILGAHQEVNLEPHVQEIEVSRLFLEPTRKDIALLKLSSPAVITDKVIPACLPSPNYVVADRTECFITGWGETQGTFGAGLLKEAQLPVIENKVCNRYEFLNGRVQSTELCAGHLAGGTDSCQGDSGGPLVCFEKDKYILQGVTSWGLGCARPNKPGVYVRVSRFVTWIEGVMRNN
The target in test [22] is tissue plasminogen activator (UniProt P00750 36-562). Described as above.
Chain of tissue plasminogen activator (P00750 36-562): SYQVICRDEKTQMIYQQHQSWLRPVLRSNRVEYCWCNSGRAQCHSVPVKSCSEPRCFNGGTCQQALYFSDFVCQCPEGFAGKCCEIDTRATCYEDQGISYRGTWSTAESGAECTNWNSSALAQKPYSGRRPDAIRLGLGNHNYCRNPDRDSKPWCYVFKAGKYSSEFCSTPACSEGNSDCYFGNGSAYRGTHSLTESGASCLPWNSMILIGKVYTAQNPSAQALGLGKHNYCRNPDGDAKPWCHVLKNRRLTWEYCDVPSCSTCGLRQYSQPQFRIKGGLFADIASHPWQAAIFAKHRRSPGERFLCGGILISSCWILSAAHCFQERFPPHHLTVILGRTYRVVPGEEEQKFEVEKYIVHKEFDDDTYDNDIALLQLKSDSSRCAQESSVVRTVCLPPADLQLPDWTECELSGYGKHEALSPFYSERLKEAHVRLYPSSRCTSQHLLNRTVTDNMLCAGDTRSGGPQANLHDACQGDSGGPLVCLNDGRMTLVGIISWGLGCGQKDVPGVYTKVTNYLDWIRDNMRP
The target in test [23] is T5, factor XII (UniProt P00748 20-615).
T5 construct: also called FXII
T5 sequence (looked up): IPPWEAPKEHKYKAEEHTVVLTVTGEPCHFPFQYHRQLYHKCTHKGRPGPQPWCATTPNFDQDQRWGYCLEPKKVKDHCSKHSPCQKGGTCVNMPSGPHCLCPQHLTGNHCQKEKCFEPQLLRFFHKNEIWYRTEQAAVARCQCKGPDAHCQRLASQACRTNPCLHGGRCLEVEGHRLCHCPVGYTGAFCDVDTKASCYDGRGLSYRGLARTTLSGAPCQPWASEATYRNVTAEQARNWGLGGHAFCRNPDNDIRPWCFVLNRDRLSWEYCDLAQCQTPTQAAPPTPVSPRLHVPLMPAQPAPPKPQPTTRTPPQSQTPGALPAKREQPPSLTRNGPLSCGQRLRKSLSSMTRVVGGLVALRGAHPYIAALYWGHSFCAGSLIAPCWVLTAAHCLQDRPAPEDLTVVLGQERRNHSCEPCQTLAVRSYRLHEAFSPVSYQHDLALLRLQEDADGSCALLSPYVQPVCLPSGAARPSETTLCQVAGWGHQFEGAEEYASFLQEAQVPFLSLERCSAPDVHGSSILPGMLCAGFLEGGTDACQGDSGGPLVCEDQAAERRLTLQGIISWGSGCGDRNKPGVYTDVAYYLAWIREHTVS
The test is described as above.

Test [24] has as its target T6, β2-glycoprotein I (UniProt P02749 20-345).
T6 construct: also called B2-glycoprotein I; β2GPI
T6 sequence (looked up): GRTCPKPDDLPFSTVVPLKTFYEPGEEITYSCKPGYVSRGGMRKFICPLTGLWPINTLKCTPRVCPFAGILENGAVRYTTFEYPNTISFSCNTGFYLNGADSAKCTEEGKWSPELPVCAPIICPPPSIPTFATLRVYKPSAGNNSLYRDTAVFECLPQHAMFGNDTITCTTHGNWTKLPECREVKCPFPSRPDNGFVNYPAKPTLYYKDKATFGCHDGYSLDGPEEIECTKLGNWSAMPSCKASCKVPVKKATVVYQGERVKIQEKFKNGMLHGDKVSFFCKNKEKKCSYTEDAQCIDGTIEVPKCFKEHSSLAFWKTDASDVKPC
The description is as above.

Test [25] addresses T1, prothrombin variant S91A/Y93A. Description: SPR, POmAb immobilised on CM5, 1:1 model, 25 C; SPR, first set, 20 mM Tris pH 7.4, 25 C: weak binding with fast dissociation.
The target is the same in test [26]. Nature of the test: SPR, POmAb immobilised, second set, HEPES buffer, 25 C; SPR, second set, 20 mM HEPES pH 7.4, 25 C: weak binding with fast dissociation.
For test [27], the target named is T4, kringle-2 of human prothrombin (amino …). Description: ELISA, immobilised antigen, 5B10 titrated, OD at 450 nm [panel B].

B1: POmAb (Prothrombin Open monoclonal Antibody) (antibody, mouse IgG1, kappa, V domains shown)
VH: EVHLVESGGGLVKPGGSLKLSCAASGFTFSSYYMYWVRQTPEKRLEWVATISNGGIYTYYLDSVRGRFTISRDNAKNILYLQMSGLSSADSAIYYCTRDGERQGAMDYWGQGTSVTVSS
VL: QIVLTQSPAIMSVSLGERVTMTCIVSSSVSSTYLHWYQQKPGSSPKLWIYSSSNLASGVPTRFSGSGSGTSHSLTISSMEAEDAAAYYCQLYRRSPLTFGAGTKLELKR
notes: also called POmAb IgG; IgG POmAb
On to B1, for which, in test [1], the “fold change of dissociation rate against wild-type prothrombin” value was around 1000 fold. The ΔG in [2] was -11.5 kcal/mol; in test [3], -11.7 kcal/mol; in [4] it was -11.3 kcal/mol; in test [5] it was -10.5 kcal/mol; in test [6] it was -8.2 kcal/mol; in [15], -11.6 kcal/mol. The ΔG is -11.7 kcal/mol in [16] and -6.7 kcal/mol in [18]. Moreover, the EC50 in test [7] was 0.02 µg/mL; in test [8] it was 0.013 µg/mL; in test [9], 0.301 µg/mL. The Kd in test [10] is 3.7 nM; in test [11] it was 2.5 nM; in test [12] it was 5.33 nM; in test [13], 19.2 nM; in test [14], 1010 nM; in test [17], 2.98 nM. Besides, the Kd in [19] is 2.59 nM; in test [25] it was 12000 nM. For the same molecule, the koff came to 0.00027 s⁻¹ in [10]; 0.00013 s⁻¹ in test [11]; 0.000314 s⁻¹ in [12]; 0.000122 s⁻¹ in [13]; 0.00012 s⁻¹ in test [17]; 9.49e-05 s⁻¹ in [19]. For the same molecule, the koff in test [25] was 0.29 s⁻¹; in [26], 0.0702 s⁻¹. In addition, the kon in test [10] is 69100 M⁻¹ s⁻¹; in test [11], 52000 M⁻¹ s⁻¹; in [12], 58900 M⁻¹ s⁻¹; in test [13], 6350 M⁻¹ s⁻¹; in [17], 40300 M⁻¹ s⁻¹; in test [19] it was 36600 M⁻¹ s⁻¹. Also, the kon in test [25] turned out to be 24200 M⁻¹ s⁻¹; in test [26], 69600 M⁻¹ s⁻¹. Further, the binding result in test [20] was “no binding”; in [21], “no binding (tested: 50 µg/ml)”; in test [22], “no binding (tested: 50 µg/ml)”; in [23], “no binding (tested: 50 µg/ml)”; in test [24], “no binding (tested: 50 µg/ml)”.

B2: 5B10 monoclonal antibody (antibody, V domains shown)
VH: QIQLVQSGPELKKPGETVKISCKASGYTFTNYGMNWVKQAPGKGLKWMGWINTYTGEPTYADDFKGRFAFSLETSASTAYLQINNLKNEDMATYFCARGGYYYGNNYEAYWGQGTLVTVSA
VL: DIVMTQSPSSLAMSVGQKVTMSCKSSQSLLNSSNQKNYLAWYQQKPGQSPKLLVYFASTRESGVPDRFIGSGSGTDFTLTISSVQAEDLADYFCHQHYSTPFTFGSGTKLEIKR
notes: also called clone 5B10
For B2, the half-maximal effective concentration (EC50) in [7] was determined as 0.038 µg/mL; in test [8], 0.031 µg/mL; in [9], 0.038 µg/mL. The binding result in [27] is on record as “no binding”.
